The term Kd denotes the concentration at which binding is half-saturated. The low end stands for higher affinity, the high end for lower affinity. For orientation: stoichiometry N means the number of molecules, sites or subunits per partner or assembly.

Assay [1] has as its target Kj12B-^NDD (N-terminal docking domain of Kj12B) (Xenorhabdus stockiae KJ12.1). Description: ITC; 50 µM ^NDD protein in the cell titrated with 1 mM ^CDD peptide or variant, 20 °C, 50 mM sodium phosphate pH 6.5, 100 mM NaCl, one site binding model, three independent titrations.
Assay [2] addresses Kj12A-^NDD (N-terminal docking domain of Kj12A) (Xenorhabdus stockiae KJ12.1). The description is as above.
Assay [3] concerns the target Kj12C-^NDD (N-terminal docking domain of Kj12C) (Xenorhabdus stockiae KJ12.1). Described as above.
Assay [4] concerns the target Kj12B N-terminal docking domain (Xenorhabdus stockiae KJ12.1). Description: ITC; 50 µM NDD (or Kj12C construct) in the cell titrated with 1 mM CDD peptide; 20 °C; 50 mM sodium phosphate pH 6.5, 100 mM NaCl; one site binding model; three independent titrations.
The target of assay [5] is Kj12B thiolation domain with CDD (Xenorhabdus stockiae KJ12.1). Nature of the assay: ITC; Kj12B T-domain-CDD in the cell (given as 50 mM) titrated with 1 mM Kj12C-NDD in the syringe; 20 °C; 50 mM sodium phosphate pH 6.5, 100 mM NaCl; one site binding model. On the technique in general: In ITC the heat of successive injections is recorded.
In assay [6] the target is Kj12B-NDD K28E (Xenorhabdus stockiae KJ12.1). Description: ITC; 50 µM NDD (or Kj12C construct) in the cell titrated with 1 mM CDD peptide; 20 °C; 50 mM sodium phosphate pH 6.5, 100 mM NaCl; one site binding model; three independent titrations.
The target in assay [7] is Kj12B-NDD K24R, K26Q, K28E (Xenorhabdus stockiae KJ12.1). The description is as above.
Assay [8] deals with Kj12C-NDD Q26K, E28A (Xenorhabdus stockiae KJ12.1). Described as above.
In assay [9] the target is Kj12C-NDD-Cterm (full-length Kj12C module) (Xenorhabdus stockiae KJ12.1). Described as above.
Assay [10] deals with Kj12B-NDD K26Q, K28E (Xenorhabdus stockiae KJ12.1). Described as above.
The target of assay [11] is Kj12C N-terminal docking domain (Xenorhabdus stockiae KJ12.1). The description is as above.

“Kj12B-^CDD peptide (C-terminal docking domain of Kj12B)”: the Kd amounted to 62 µM in [1], 8 µM in assay [2] and 8 µM in assay [3].
In assay [3], “Kj12A-^CDD peptide with E1169R and H1171E (double mutant)” displayed a Kd of 3.5 µM.
Turning to Kj12B-CDDshort R1565E peptide, the stoichiometry N in assay [4] amounted to 1.15 sites.
As for “Kj12C N-terminal docking domain (domain or fragment)”, in [5], the dissociation constant (Kd) stood at 19 µM and the stoichiometry N was 1.2 sites.
Regarding Kj12B-^CDD peptide R1565E, the Kd in assay [1] was found to be 13 µM.
In assay [3], Kj12B-^CDD_(short) peptide had a Kd of 15 µM.
Consider “Kj12A-^CDD peptide (C-terminal docking domain of Kj12A)”, for which the Kd in [3] came to 100 µM.
As to Kj12B-CDDshort peptide, the Kd turned out to be 33 µM in assay [6], 80 µM in [8], 8 µM in assay [9] and 20.4 µM in assay [10]. Moreover, the stoichiometry N is 1 sites in assay [6]; 0.97 sites in assay [7]; 1 sites in [8]; 1 sites in assay [9]; 1 sites in [10].
Substance Kj12A-CDDshort E1169R, H1171E peptide came in with a stoichiometry N in [11] of 1.3 sites.

Values taken from paper PMC6195595.
